Experimental data taken from US20230322927A1 (Regeneron, published 2023).

Legend:
human EGFR on cells [1] = target: T1, human EGFR on cells (human, UniProt P00533 25-1210); test: cell-based or functional assay
human CD28 on cells = human CD28 on cells (human, UniProt P10747 19-220); test: cell-based or functional assay
human EGFR on cells [2] = target: T1, human EGFR on cells; test: flow cytometry titration on A375 cells
Protocol: (§1) After incubation, the cells were washed twice with cold PBS containing 1% filtered FBS and a Fluorophore-conjugated anti-human secondary antibody was added to the cells and incubated for an additional 30 minutes. Live/dead dye was added to Human and Cynomolgus T cells incubations. Wells containing no antibody or secondary only were used as a control.
(§2) After incubation with EGFR expressing cells, cells were washed, re-suspended in 200 μL cold PBS containing 1% filtered FBS and analyzed by flow cytometry on a BD FACS Canto II.

human EGFR on cells [3] = target: T1, human EGFR on cells; test: flow cytometry titration on PEO1 cells
Protocol: as §1, §2

human EGFR on cells [4] = target: T1, human EGFR on cells; test: flow cytometry titration on 22RV1 cells
Protocol: as §1, §2

human EGFR on cells [5] = target: T1, human EGFR on cells; test: flow cytometry titration on A375 cells (EGFR-expressing)
Protocol: (§3) Flow cytometric analysis was utilized to determine binding of anti-EGFR X anti-CD28 bispecific antibodies to several cancer cell lines (A375, 22RV1, PEO1, CAPAN2, SWi1990, H292), Human and Cynomolgus T cells and Jurkat cells followed by detection with a labeled anti-human secondary IgG antibody. […] After incubation, the cells were washed twice with cold PBS containing 1% filtered FBS and a Fluorophore-conjugated anti-human secondary antibody was added to the cells and incubated for an additional 30 minutes. Live/dead dye was added to Human and Cynomolgus T cells incubations. Wells containing no antibody or secondary only were used as a control.

human EGFR on cells [6] = target: T1, human EGFR on cells; test: flow cytometry titration on H292 cells (EGFR-expressing)
Protocol: as §3

human EGFR on cells [7] = target: T1, human EGFR on cells; test: flow cytometry titration on PEO1 cells (EGFR-expressing)
Protocol: as §3

human EGFR on cells [8] = target: T1, human EGFR on cells; test: flow cytometry titration on CASKI cells; CASKI cells
human EGFR on cells [9] = target: T1, human EGFR on cells; test: flow cytometry titration on 22RV1 cells (EGFR-expressing)
Protocol: as §3

human EGFR on cells [10] = target: T1, human EGFR on cells; test: flow cytometry titration on CAPAN2 cells (EGFR-expressing)
Protocol: as §3

human EGFR on cells [11] = target: T1, human EGFR on cells; test: flow cytometry titration on SW1990 cells (EGFR-expressing)
Protocol: as §3

[12] = target: T2, hEGFR(ECD).CPGG.MMH6 (REGN355) (human, UniProt P00533 25-647); test: SPR (Biacore 4000) at 25 C; antibody captured on anti-human Fc, hEGFR.mmH injected
T2 construct: Soluble extracellular domain with a myc-myc-hexahistidine tag; also called hEGFR.mmH; hEGFR.mmh
Protocol: Association was monitored for 5 minutes, and the dissociation of hEGFR.mmH in HBS-EP running buffer was monitored for 10 minutes. All of the binding kinetics experiments were performed at 25° C. Kinetic association (kₐ) and dissociation (kd) rate constants were determined by fitting the real-time sensorgrams to a 1:1 binding model using Scrubber 2.0c curve fitting software.

hCD28.mFc (REGN2012) = target: T3, hCD28.mFc (REGN2012) (human, UniProt P10747 19-152, limits assumed); test: SPR (Biacore T-200) at 25 C; hCD28.mFc captured on anti-mouse Fc, antibody injected
T3 construct: also called Human CD28-mFc; hCD28 with a C-terminal mouse Fc tag; not shown: C-terminal mouse Fc tag

- Inhibition [%] of BaF3/hEGFR proliferation in presence of 0.5 nM hEGF (human EGFR on cells [1]): 28.5%
- Inhibition [%] of BaF3/hEGFR proliferation in presence of 0.5 nM hTGFβ (human EGFR on cells [1]): -7.3%
- IL-2 Release MAX (pg/mL), human CD3+ T cells + NCI-H292 cells, with 20 nM IsoC-1 (human CD28 on cells): 13.2 pg/mL
- IL-2 Release MAX (pg/mL), human CD3+ T cells + NCI-H292 cells, with 20 nM cemiplimab (human CD28 on cells): 36.7 pg/mL
- Proliferation EC50 [M], human CD3+ T cells + NCI-H292 cells, with 20 nM IsoC-1 (human CD28 on cells): 2.29e-11 M
- Proliferation EC50 [M], human CD3+ T cells + NCI-H292 cells, with 20 nM cemiplimab (human CD28 on cells): 3.13e-11 M
- Proliferation MAX (CPM), human CD3+ T cells + NCI-H292 cells, with 20 nM IsoC-1 (human CD28 on cells): 1660 CPM
- Proliferation MAX (CPM), human CD3+ T cells + NCI-H292 cells, with 20 nM cemiplimab (human CD28 on cells): 2340 CPM
- EC50 (human EGFR on cells [2]): 0.874 nM
- EC50 (human EGFR on cells [3]): 5.86 nM
- EC50 (human EGFR on cells [4]): 11.9 nM
- EC50 (human EGFR on cells [5]): 1.48 nM
- EC50 (human EGFR on cells [6]): 0.674 nM
- EC50 (human EGFR on cells [7]): 0.667 nM
- EC50 (human EGFR on cells [8]): 2.35 nM
- EC50 (human EGFR on cells [9]): 0.554 nM
- EC50 (human EGFR on cells [10]): 1.29 nM
- EC50 (human EGFR on cells [11]): 2.96 nM
- Kd [12]: 3.75 nM
- koff [12]: 0.000774 s⁻¹
- kon [12]: 206000 M⁻¹ s⁻¹
- t½ [12]: 14.9 min
- Kd (hCD28.mFc (REGN2012)): 10 nM
- koff (hCD28.mFc (REGN2012)): 0.00265 s⁻¹
- kon (hCD28.mFc (REGN2012)): 265000 M⁻¹ s⁻¹
- t½ (hCD28.mFc (REGN2012)): 4.4 min
B1: REGN6323 (bispecific antibody, human IgG4 S228P, kappa)
heavy 1: QVQLQESGPGLVKPSETLSLTCTVSDDSIISYYWSWIRQPPGKGLEWIGYIYYSGRTNYNPSLKSRVTISVDTSKNQVSLKLNSVIAADTAVYYCARVSEDSYYHYGMDVWGQGTTVTVSSASTKGPSVFPLAPCSRSTSESTAALGCLVKDYFPEPVTVSWNSGALTSGVHTFPAVLQSSGLYSLSSVVTVPSSSLGTKTYTCNVDHKPSNTKVDKRVESKYGPPCPPCPAPPVAGPSVFLFPPKPKDTLMISRTPEVTCVVVDVSQEDPEVQFNWYVDGVEVHNAKTKPREEQFNSTYRVVSVLTVLHQDWLNGKEYKCKVSNKGLPSSIEKTISKAKGQPREPQVYTLPPSQEEMTKNQVSLTCLVKGFYPSDIAVEWESNGQPENNYKTTPPVLDSDGSFFLYSRLTVDKSRWQEGNVFSCSVMHEALHNHYTQKSLSLSLGK
heavy 2: QVQLQESGPGLVKPSETLSLTCTVSGGSISSYYWSWIRQPPGKGLEWIGYIYYSGITHYNPSLKSRVTISVDTSKIQFSLKLSSVTAADTAVYYCARWGVRRDYYYYGMDVWGQGTTVTVSSASTKGPSVFPLAPCSRSTSESTAALGCLVKDYFPEPVTVSWNSGALTSGVHTFPAVLQSSGLYSLSSVVTVPSSSLGTKTYTCNVDHKPSNTKVDKRVESKYGPPCPPCPAPPVAGPSVFLFPPKPKDTLMISRTPEVTCVVVDVSQEDPEVQFNWYVDGVEVHNAKTKPREEQFNSTYRVVSVLTVLHQDWLNGKEYKCKVSNKGLPSSIEKTISKAKGQPREPQVYTLPPSQEEMTKNQVSLTCLVKGFYPSDIAVEWESNGQPENNYKTTPPVLDSDGSFFLYSRLTVDKSRWQEGNVFSCSVMHEALHNRFTQKSLSLSPGK
light: not shown
notes: EGFR arm from mAb13006P2, CD28 arm from mAb14226; also called bsAb6323; EGFRxCD28
